Ends that are not written are not given here. * marks the point of attachment. Biotin = O=C1N[C@H]2[C@H](CS[C@H]2CCCCC(=O)*)N1
Molecular target: T1, PDZ domain of GIPC/synectin displayed on T7 phage (UniProt O14908 133-213, limits assumed)
T1 construct: domain: PDZ domain; also called GIPC/Synectin-PDZ T7 phage; GIPC-PDZ
T1 sequence (looked up): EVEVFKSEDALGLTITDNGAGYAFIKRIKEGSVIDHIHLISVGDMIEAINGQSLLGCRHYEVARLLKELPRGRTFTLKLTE
Test: phage ELISA, biotinylated peptide on Neutravidin plate, GIPC-PDZ T7 phage
Experimental: Neutravidin plates (Pierce) were coated in duplicate with 100 μL of 10 μg/mL solutions of N-terminal biotinylated peptides ([…] (SEQ ID NO: 3) (from GAIP), KKETEV (SEQ ID NO: 12) and KKETAV (SEQ ID NO: 13) (two sequences that bind PDZ3 of PSD-95 (21), and allowed to incubate 1-2 h at 37° C. (or overnight at 4° C.) with mild shaking. The unbound peptides were washed away three times with TBS (0.5% Tween-20)-TBST buffer. Blocking buffer was prepared by diluting BSA […] in TBS stock two-fold in dH2O (for a 5% BSA final concentration) and free biotin (1 mM). Alternatively, SuperBlock in PBS buffer (Pierce) with free biotin (1 mM) was used. The blocking buffer was added to each well and allowed to incubate 30-60 min at 37° C. with mild shaking. The blocking buffer was washed away with TBST by inverting the plate and tapping off the excess with each of the 4-5 washes. The GIPC/Synectin-PDZ T7 phage to be screened with the biotinylated peptides were prepared by adding phage stock (1 mL, 20 μL) derived from one of the eight plaques (discussed above) to freshly harvested BLT5403 E. coli at OD ˜1. Once lysis was observed, the cell debris was spun down and phage lysate was used in a plaque assay (as discussed above) to determine the titer (phage titer added to wells 5×10⁹ pfu). […] The substrate was added to each well, and the development was measured at 405 nm after 30 min, 1 h and 2 h.

B1: N-terminal biotinylated peptide KKETEV (SEQ ID NO: 12) (peptide)
peptide: Biotin-KKETEV
notes: Comparison peptide in the phage ELISA
binding result: no binding

B2: N-terminal biotinylated peptide KKETAV (SEQ ID NO: 13) (peptide)
peptide: Biotin-KKETAV
notes: as for B1
binding result: no binding

Source: patent publication US20120040915A1 (MAYO FOUNDATION FOR MEDICAL EDUCATION AND RESEARCH, published 2012)
